Results published in patent US20250289904A1 (UMC UTRECHT HOLDING B V, published 2025).

Experiments:
[1] = target: plasmin-cleaved von Willebrand factor (cVWF) (human) (UniProt P04275); test: capture ELISA, cVWF spiked in citrated normal pooled plasma, detection with biotinylated VHH B9
[2] = target: plasmin-cleaved von Willebrand factor (cVWF) (human) (UniProt P04275); test: capture ELISA, VHH coated on plate, concentration series of VWF and cVWF in buffer, detection with biotinylated VHH B9; reference: intact VWF
[3] = target: plasmin-cleaved von Willebrand factor (cVWF) (human) (UniProt P04275); test: capture ELISA, cVWF in buffer, detection with biotinylated VHH B9
[4] = target: T1, intact von Willebrand factor (VWF) (human, UniProt P04275 764-2813); test: capture ELISA, VHH coated on plate, concentration series of VWF in buffer, detection with biotinylated VHH B9 and streptavidin-poly HRP
T1 construct: also called uncleaved VWF; purified VWF
T1 sequence (P04275 764-2813 limits assumed): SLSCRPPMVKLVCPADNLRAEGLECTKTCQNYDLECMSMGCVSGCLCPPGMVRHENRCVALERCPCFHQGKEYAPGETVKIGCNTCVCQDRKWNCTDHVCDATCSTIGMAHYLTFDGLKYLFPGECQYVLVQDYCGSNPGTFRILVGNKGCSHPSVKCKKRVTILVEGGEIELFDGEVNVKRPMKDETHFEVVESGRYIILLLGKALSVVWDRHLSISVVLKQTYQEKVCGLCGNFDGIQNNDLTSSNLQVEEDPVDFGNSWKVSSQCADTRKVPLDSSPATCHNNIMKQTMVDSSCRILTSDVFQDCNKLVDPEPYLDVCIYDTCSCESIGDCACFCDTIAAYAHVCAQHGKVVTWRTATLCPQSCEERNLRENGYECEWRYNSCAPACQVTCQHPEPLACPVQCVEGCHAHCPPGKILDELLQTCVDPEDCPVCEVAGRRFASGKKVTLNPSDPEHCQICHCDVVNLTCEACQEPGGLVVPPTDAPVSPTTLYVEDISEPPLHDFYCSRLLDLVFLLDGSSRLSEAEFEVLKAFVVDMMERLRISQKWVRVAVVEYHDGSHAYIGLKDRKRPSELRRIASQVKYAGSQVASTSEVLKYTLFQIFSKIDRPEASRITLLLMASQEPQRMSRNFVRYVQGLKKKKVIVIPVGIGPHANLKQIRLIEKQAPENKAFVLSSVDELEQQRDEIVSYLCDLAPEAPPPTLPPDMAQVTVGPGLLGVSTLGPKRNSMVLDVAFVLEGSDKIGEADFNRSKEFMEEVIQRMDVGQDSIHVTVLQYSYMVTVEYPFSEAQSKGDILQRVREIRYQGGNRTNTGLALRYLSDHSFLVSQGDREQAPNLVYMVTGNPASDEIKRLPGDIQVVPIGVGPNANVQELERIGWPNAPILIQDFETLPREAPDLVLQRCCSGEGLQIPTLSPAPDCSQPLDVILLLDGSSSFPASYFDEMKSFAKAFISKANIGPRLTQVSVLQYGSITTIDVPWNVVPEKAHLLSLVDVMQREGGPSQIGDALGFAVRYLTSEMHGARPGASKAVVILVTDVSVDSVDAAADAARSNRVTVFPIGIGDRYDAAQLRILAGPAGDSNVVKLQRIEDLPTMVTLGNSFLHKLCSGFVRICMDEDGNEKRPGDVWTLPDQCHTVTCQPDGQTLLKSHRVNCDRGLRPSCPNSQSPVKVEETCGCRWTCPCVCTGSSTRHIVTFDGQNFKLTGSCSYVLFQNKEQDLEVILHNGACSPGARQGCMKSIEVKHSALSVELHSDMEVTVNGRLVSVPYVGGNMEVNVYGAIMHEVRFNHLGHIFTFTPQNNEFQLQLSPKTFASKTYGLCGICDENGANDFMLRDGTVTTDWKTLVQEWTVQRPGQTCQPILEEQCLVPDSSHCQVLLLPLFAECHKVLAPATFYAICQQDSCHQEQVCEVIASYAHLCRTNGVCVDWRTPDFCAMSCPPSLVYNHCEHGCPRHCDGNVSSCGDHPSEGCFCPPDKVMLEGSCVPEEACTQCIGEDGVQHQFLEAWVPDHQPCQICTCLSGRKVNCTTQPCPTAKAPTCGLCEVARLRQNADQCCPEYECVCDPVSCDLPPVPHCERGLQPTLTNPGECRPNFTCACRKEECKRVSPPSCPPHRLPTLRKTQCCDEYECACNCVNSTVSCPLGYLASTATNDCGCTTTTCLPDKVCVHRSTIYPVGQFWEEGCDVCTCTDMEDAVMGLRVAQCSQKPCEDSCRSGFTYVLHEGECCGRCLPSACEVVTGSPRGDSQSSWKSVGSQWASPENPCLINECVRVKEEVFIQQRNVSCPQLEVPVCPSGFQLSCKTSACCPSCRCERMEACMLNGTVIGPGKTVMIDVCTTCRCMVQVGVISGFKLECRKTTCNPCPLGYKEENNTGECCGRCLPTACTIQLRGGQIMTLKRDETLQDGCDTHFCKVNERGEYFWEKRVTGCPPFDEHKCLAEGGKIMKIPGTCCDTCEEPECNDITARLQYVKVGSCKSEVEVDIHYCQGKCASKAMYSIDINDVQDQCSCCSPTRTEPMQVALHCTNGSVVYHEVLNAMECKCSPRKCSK

Binder	sensitivity of the cVWF ELISA [1]	fold discrimination between VWF and cVWF [2]	sensitivity of the cVWF ELISA [3]	binding result [4]
cVWF capture VHH #1 (F5) (VHH, not shown: small tags and cut ends) VHH: EVQLVESGGGLVQAGGSLRLSCAASGQTDSTYTGGWFRQAPGKEREFVATFSWNSGRTHFADSVKGRFTISRDNAKSTVFLQMNSLKPEDTAVYYCAAHRTSLTDYSFRYWGQGTHVTVSS	8 ng/mL	144 fold	8 ng/mL	–
cVWF capture VHH #2 (G5) (VHH, not shown: small tags and cut ends) VHH: EVQLVESGGGLVQAGGSLRLSCAVSGRTVSNSMAWFRQAPEKEREFVAAISWNSGRTDYADSVKGRFTISRDNAKNTVDLQMNSLKAEDTAVYYCAVHRVRIEPKEYLYWGQGTQVTVSS	4 ng/mL	–	4 ng/mL	–
negative control VHH-R2 (VHH, Production and tags of this control are not described) VHH: QVQLQESGGGLVQAGGSLRLSCAASGRATSGHGHYGMGWFRQVPGKEREFVAAIRWSGKETWYKDSVKGRFTISRDNAKTTVYLQMNSLKPEDTAVYYCAARPVRVDDISLPVGFDYWGQGTQVTVSS	–	–	–	no binding
